Values joined by “and” are separate entries in the source; they are usually repeats but may differ in a detail not shown here. Identical values can stand only once. “Also recorded” adds a separate entry of the source.
What was measured:
[1] = test system: human derived breast cancer model with CD138 IHC score 2-3; test: Breast cancer model, CD138 IHC score 2-3; assay type: in vivo, NMRI nude mice; conditions: 8 mg/kg once weekly
Excerpt: The results are shown in terms of the effect on the mean relative tumor volume in the model relative to an intravenous administration of PBS. For the calculation of the median relative tumor volume on day, see FIG. 33.

[2] = test system: relapsed/refractory multiple myeloma; test: Human trial, repeated multiple dose regimen (days 1, 8, 15)
Excerpt: This includes, e.g., in alternating 2 and 3 day intervals, in 4 day intervals, in progressive increasing intervals such as on day 1, 3, 6, 10, 15. […] Such a treatment cycle, including a resting period, is also referred to herein as “full” or “complete” treatment cycle. A treatment free period describes the time during which no treatment is given. Thus, in the above example, the treatment free period would start at day 16. At the beginning of the resting period, no immunoconjugate is administered to the patient.
Generally, all toxicities of at least grade 3 are defined as DLT. Further study specific DLT criteria which can be employed are listed below: Nonhematological: • Alopecia, of any grade, is not considered a DLT • Grade 3-4 nausea and vomiting lasting longer than 3 days despite optimal antiemetic medication.^a • Grade 3-4 diarrhea lasting longer than 3 days despite optimal antidiarrheal medication.^a a. Optimal antidiarrheal and antiemetic treatment were determined by each investigator.
These DLTs may occur in a first or a subsequent treatment cycle. […] Preferably DLTs in the first cycle are considered.
Initially, the response to treatment was evaluated at day 1 of treatment cycles 1-3 by M-protein quantification using immunoelectrophoresis (IEP) and immunofixation electrophoresis (IFE) from serum and 24-hour urine collection. […] A general quantitative immunoglobulin assessment was done together with M-protein quantification.
Serum samples were used to perform FLC assays to examine multiple myeloma subjects with no detectable M-protein (nonsecretory/oligosecretory myeloma) and to allow for detection of early response to treatment. Therefore serum FLC assays were performed on day 1, 2, 3, and 8 of treatment cycle 1, on day 2, 3, 8 and 15 of cycle 4, as well as on day 1, 8 and 15 of all other treatment cycles. M-protein and FLC were be analyzed at the screening and at the close-out visit. Evaluations at day 1 of cycle 1 served as baseline values.

[3] = test system: OPM-2 cells; test: FACS analysis of binding; assay type: cell-based; conditions: FIG. 6
Excerpt: OPM-2 cells are plasma cell leukaemia cell lines showing highly expressing CD138. […] The cells were washed and CD138-bound antibody or conjugates were detected using a fluorescence-labelled secondary antibody in FACS analysis. The mean fluorescence measured in these experiments was plotted against the antibody concentration.

[4] = Plasma level of BT062 (PK ELISA), repeated single dose; assay type: in vivo, human; conditions: for effective Cmax (cycle 1) mean: 0-2 h post infusion; for effective Cmax (cycle 4) mean: day 64
Procedure: Theoretical Cmax was Calculated According to the Following Assumed Parameters: […]
The same evaluation was performed during treatment cycle 4. […] The amount of BT062 in the plasma is determined via a PK ELISA method described as follows:
The wells of a microtiter plate are first coated with anti-maytansinoid (anti-DM4) antibody overnight at 2-8° C. and after blocking with assay buffer (0.5% BSA/TBS) incubated on the next day with plasma samples. These are diluted beforehand at least 1:100 in assay buffer. […] After incubation, unbound material is removed by washing. […] Unbound secondary antibody is removed by another washing step. After this, TMB substrate solution is pipetted into all the wells. […] The color reaction is ended using a stop solution, which causes the color to change from blue to yellow. The final measurement is carried out with a photometer at a wavelength of 450 nm.
The relationship between concentration and optical density is evaluated using Magellan V6.6 software.

[5] = test system: primary pancreatic tumor; test: Example 9 xenograft (FIG. 38); assay type: in vivo, NMRI (nude) mice; conditions: 4 and 8 mg/kg once weekly; re-growth in treatment free period
Excerpt: The results are shown in terms of the effect on the mean relative tumor volume.

[6] = test system: primary mammary tumor of a patient; test: Mammary carcinoma xenograft; assay type: in vivo, NMRI (nude) mice; conditions: for T/C: day 21
[7] = test system: human derived breast cancer model with CD138 IHC score 1-2; test: Breast cancer model, CD138 IHC score 1-2; assay type: in vivo, NMRI nude mice; conditions: 1-4 mg/kg once weekly (FIG. 37)
Excerpt: No difference in the treatment regimens was observed. The results are shown in terms of the effect on the mean relative tumor volume in the model relative to an intravenous administration of PBS. For the calculation of the median relative tumor volume on day, see FIG. 33.

**Q.** With BT062 as the substance, how does the tumor response [1] read?
**A.** complete remission

**Q.** What about the DLTs ([2]; 40 mg/m^2 weekly, 14 administrations) of the same substance?
**A.** no DLTs

**Q.** What about the response ([2]; 80 mg/m^2 weekly, Patient 12) of the same substance?
**A.** partial response

**Q.** And the progression free survival ([2]; 100 mg/m^2 weekly, patient 15 (FIG. 23))?
**A.** more than 3 months

**Q.** And the response ([2]; 120 mg/m^2 weekly, patient 19 (FIG. 24))?
**A.** unconfirmed minor response

**Q.** What about the “patients displaying DLT” value ([2]; 140 mg/m^2 weekly) of the same substance?
**A.** 1 out of 6

**Q.** What about the “patients displaying DLTs” value ([2]; 160 mg/m^2 weekly) of the same substance?
**A.** two out of the four and 2 out of 4

**Q.** What about the response ([2]; 160 mg/m^2 weekly, patient 31) of the same substance?
**A.** minor response

**Q.** And the M-protein decrease ([2]; 160 mg/m^2 weekly, patient 31 (FIG. 25))?
**A.** more than 25%

**Q.** And the disease status ([2]; 3 × 50 mg/m^2, over six cycles (Patient 6))?
**A.** no disease progression; also recorded: At least stable disease could be achieved

**Q.** And the “serum FLC level” value ([2]; 3 × 65 mg/m^2, after a single treatment cycle (FIG. 21))?
**A.** A strong decrease of the serum FLC level

**Q.** What about the Tolerability ([2]; 3 × 80 mg/m^2, aggregate 240 mg/m^2 in three weeks) of the same substance?
**A.** well tolerated

**Q.** And the “reduction of urine M protein” value ([2]; 3 × 120 mg/m^2, after 3rd, 7th and 10th cycle)?
**A.** 50% achieved after 3rd, 7th and 10th cycle

**Q.** And the “patients with progression free survival of at least 168 days” value ([2]; FIG. 18)?
**A.** four

**Q.** What about the “patients with progression free survival of at least 300 days” value ([2]; FIG. 18) of the same substance?
**A.** two

**Q.** What about the “treatment without disease progression” value ([2]; Patient 8 (FIG. 21)) of the same substance?
**A.** 168 days

**Q.** What about the “patients (out of 32) with progression free survival of at least 3 months” value ([2]; all dose levels (FIG. 18)) of the same substance?
**A.** 14

**Q.** And the “DLT (palmar-plantar erythrodysaethesia syndrome), patients” value ([2]; at 420 (3 × 140 mg/m^2), out of six)?
**A.** toxicities (up to now), one

**Q.** What about the MAD ([2]; days 1, 8, 15) of the same substance?
**A.** 160 mg/m^2

**Q.** And the DLTs ([2]; three 21 day cycles of 3×100 mg/m^2)?
**A.** No DLTs

**Q.** And the DLTs ([2]; three 21 day cycles of 3×120 mg/m^2)?
**A.** No DLTs

**Q.** And the binding characteristics [3]?
**A.** very similar binding characteristics

**Q.** What about the “percentage of theoretical Cmax (cycle 1)” value ([4]; 10 mg/m^2) of the same substance?
**A.** 15%

**Q.** And the “effective Cmax (cycle 1) mean” value ([4]; 10 mg/m^2)?
**A.** 1110 ng/mL and 1100 ng/mL

**Q.** And the “percentage of theoretical Cmax (cycle 1)” value ([4]; 20 mg/m^2)?
**A.** 20%

**Q.** What about the “percentage of theoretical Cmax (cycle 4)” value ([4]; 20 mg/m^2) of the same substance?
**A.** 49%

**Q.** What about the “effective Cmax (cycle 1) mean” value ([4]; 20 mg/m^2) of the same substance?
**A.** 2900 ng/mL

**Q.** What about the “effective Cmax (cycle 4) mean” value ([4]; 20 mg/m^2) of the same substance?
**A.** 7060 ng/mL

**Q.** What about the “percentage of theoretical Cmax (cycle 1)” value ([4]; 40 mg/m^2) of the same substance?
**A.** 16%

**Q.** What about the “percentage of theoretical Cmax (cycle 4)” value ([4]; 40 mg/m^2) of the same substance?
**A.** 9%

**Q.** What about the “effective Cmax (cycle 1) mean” value ([4]; 40 mg/m^2) of the same substance?
**A.** 4310 ng/mL

**Q.** And the “effective Cmax (cycle 4) mean” value ([4]; 40 mg/m^2)?
**A.** 2510 ng/mL

**Q.** What about the “percentage of theoretical Cmax (cycle 1)” value ([4]; 80 mg/m^2) of the same substance?
**A.** 34%

**Q.** And the “percentage of theoretical Cmax (cycle 4)” value ([4]; 80 mg/m^2)?
**A.** 26%

**Q.** What about the “effective Cmax (cycle 1) mean” value ([4]; 80 mg/m^2) of the same substance?
**A.** 18800 ng/mL

**Q.** And the “effective Cmax (cycle 4) mean” value ([4]; 80 mg/m^2)?
**A.** 14200 ng/mL

**Q.** And the “percentage of theoretical Cmax (cycle 1)” value ([4]; 120 mg/m^2)?
**A.** 26.5%

**Q.** What about the “effective Cmax (cycle 1) mean” value ([4]; 120 mg/m^2) of the same substance?
**A.** 21400 ng/mL

**Q.** What about the “percentage of theoretical Cmax (cycle 1)” value ([4]; 160 mg/m^2) of the same substance?
**A.** 74.5%

**Q.** What about the “percentage of theoretical Cmax (cycle 4)” value ([4]; 160 mg/m^2) of the same substance?
**A.** 71%

**Q.** And the “effective Cmax (cycle 1) mean” value ([4]; 160 mg/m^2)?
**A.** 81200 ng/mL

**Q.** And the “effective Cmax (cycle 4) mean” value ([4]; 160 mg/m^2)?
**A.** 77400 ng/mL

**Q.** And the “percentage of theoretical Cmax (cycle 1)” value ([4]; 200 mg/m^2)?
**A.** 60%

**Q.** And the “effective Cmax (cycle 1) mean” value ([4]; 200 mg/m^2)?
**A.** 82000 ng/mL

**Q.** What about the tumor response [5] of the same substance?
**A.** complete remission

**Q.** And the “mice with complete remission without tumor regrowth” value ([6]; 1 mg/kg once weekly)?
**A.** 3/7

**Q.** What about the “mice with partial remission” value ([6]; 1 mg/kg once weekly) of the same substance?
**A.** 2/7

**Q.** And the tumor response ([6]; 1 mg/kg once weekly)?
**A.** tumor stasis

**Q.** What about the T/C ([6]; 13.25 mg/kg/4 mg/kg) of the same substance?
**A.** 0.0

**Q.** What about the T/C ([6]; 23.85 mg/kg) of the same substance?
**A.** 0.0

**Q.** And the tumor response ([6]; 4 and 2 mg/kg once weekly (FIG. 35))?
**A.** complete remission

**Q.** And the “tumor regrowth in treatment free observation period” value ([6]; 39 days after the last administration)?
**A.** no tumor regrowth

**Q.** And the “complete remission achieved after” value ([6]; FIG. 9)?
**A.** 21 days

**Q.** What about the T/C value ([6]; both treatment groups) of the same substance?
**A.** below 10%

**Q.** What about the “influence on body weight after each injection” value ([6]; mouse, in vivo) of the same substance?
**A.** no influence on body weight

**Q.** And the tumor response [7]?
**A.** did not respond

— patent publication US20190117770A1, “USES OF IMMUNOCONJUGATES TARGETING CD138” (Biotest AG, priority 2011, published 2019)
